From patent US20250377350A1

Biological target: NY-ESO-1 157-165 peptide … presented on HLA-A*0201 (human)
Experiment: cell-based or functional assay

mRuby2 (STAT5-mRuby2 reporter) expression in peptide-pulsed ACDC-HLA cells after co-culture with TnT-TCR1G4 cells: 29% | mRuby2+ cells of the monoclonal ACDC-HLA (A*0201) line (Clone 3, …-pulsed) after co-culture with TnT-TCR1G4 cells: 46.7%
Substance: TCR1G4 (specific for the NY-ESO-1 157-165 … antigen), displayed on TnT cells
